Tested on: thrombin generation in platelet-rich plasma of a healthy donor
Test: Thrombin generation curve (Thrombogram) in platelet-rich plasma, fluorogenic substrate
Type: cell-based, Human
Conditions: platelet-rich plasma of a healthy donor treated with the inhibitor vs the same plasma untreated; FIG. 9
Procedure: FIG. 9 is an example of an experiment in which platelet-rich plasma of a healthy donor is measured as well as the same plasma treated with a known platelet-activation inhibitor (ReoPro®). The two curves are different in shape, which is obvious from a longer TTP and lower peak height, but the area under the curve of both curves are within 3%, identical. This effect on peak height and TTP in the absence of a clear effect on the ETP is also seen for many mild coagulation factor deficiencies such as von Willebrand disease, deficiencies in factor VII or factor V and in factor VIII or IX deficiencies (haemophiliae). In many instances the Peak height and TTP have proven to be much more sensitive parameters of the thrombin generation curve than the ETP alone.
Firstly, an experiment is described in which thrombin generation in a sample of platelet rich plasma is measured. Solutions used: Human platelet rich plasma, obtained as in Beguin, S., T. Lindhout, and H. C. Hemker. The effect of trace amounts of tissue factor on thrombin generation in platelet rich plasma, its inhibition by heparin. Thromb Haemost, 1989. 61(1): p-25-9. Buffer A: 20 mM Hepes 140 mM NaCl, 5 g/l bovine serum albumin (BSA), pH 7.35; Buffer C: 20 mM Hepes, 140 mM NaCl, with BSA 60 mg/mL, pH 7.35 with 0.02% sodium azide as a preservative.
FluCa solution: To 1750 μL of buffer C are added 200 μL of 1 M CaCl2. The mixture is warmed to 37° C. Then 50 μL of 100 mmoles/liter of the substrate solution in DMSO is squirted in and the tube is immediately vortexed to obtain a perfectly clear solution that is 2.5 mM in substrate. 100 mM in CaCl2, 2.5% in DMSO. […]
The disturbing effects a and b are corrected by continuous on line comparison of the first derivative of the signal from the thrombin generated in the sample (O=f(t)) and the first derivative of the signal produced in the other sample by the calibrator (S=f(t)). […] A and B are continuously calculated during the experiment from the best fitting straight line through S=f(t). […]

B1: ReoPro: a known platelet-activation inhibitor (antibody, chains of the INN, looked up, V domains shown)
VH: EVQLQQSGTVLARPGASVKMSCEASGYTFTNYWMHWVKQRPGQGLEWIGAIYPGNSDTSYIQKFKGKAKLTAVTSTTSVYMELSSLTNEDSAVYYCTLYDGYYVFAYWGQGTLVTVSA
VL: EIVLTQSPVTLSVTPGDSVSLSCRASRDISNNLHWFQQTSHESPRLLIKYASQSMSGIPSRFSGSGSGTDFTLSINSVETEDFGMYFCQQTNSWPYTFGGGTKLEIK
modifications: Fab
- TTP (time to peak) of thrombin generation curve: longer
- difference in area under the curve (ETP) between treated and untreated plasma: ≤ 3%
- peak height of thrombin generation curve: lower

Source: patent US8802386B2, “Diagnostic test for determining the concentration of transient proteolytic activity in composite biological media” (Synapse B.V., priority 2002, dated 2014)
